Experimental findings from the nanobody polyreactivity screen of Harvey et al. (2022) are described below.

This data set in a line: yeast display, Sf9 membrane polyspecificity reagent, FACS + sequencing; frameworks hold sequencing errors. A digest of the protocol:
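In a synthetic yeast display library (Saccharomyces cerevisiae BJ5465), nanobody expression was induced with galactose for 36–48 hours. FACS gates were set low and high (top ~1%) using anti-HA fluorescence for expression and streptavidin fluorescence for binding of the Sf9 membrane reagent. Each polyreactivity label is drawn from the gate of origin.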
With “QDQLVESGGGLVQAGGSLRLSCAASGIIFRNYAMGWYRQAPGKERELVATIRYRGGRTYADSVKGRFTISRDNAKNTVYLQMNSLKPEDTAVYYCNARRLSDYGDYDYWGQGTQVTVSS”, the “polyreactivity (PSR sort gate)” value is “high polyreactivity”.

As to “QDQLVESGGGLVQAGGSLRLSCAASGITFAYYAMGWYTQAPGKERELVAGISKSGGRTYYADSVKGRFTISRDHAKNTVYLQMNSLKPEDTAVYYCAAQDARRIVYYRYYYWGQGTQVTVSS”, the “polyreactivity (PSR sort gate)” value is “high polyreactivity”.

Consider “QDQLVESGGGLVQAGGSLRLSCAASGITFPNYAMGWYGQAPGKERELVAAISRGDSTYYADSVKGRFTISRDNAKNTVYLQMNSLKPEDTAVYYCAARYGRYWSSSGSWTPYGYWGQGTQVTVSS”, for which the “polyreactivity (PSR sort gate)” value is listed as “high polyreactivity”.

Turning to “QDQLVESGGGLVQAGGSLRLSCAASGLIFLYPMGGYRQAPGKERELVAAISNGGSTYYADSVKGRFTISRDNAKNTVYLQMNSLKPEDTAVYFCAAKGVRRRYRPDMYYWGQGTQVTVSS”, the “polyreactivity (PSR sort gate)” value is given as “high polyreactivity”.

Take “QDQLVESGGGLVQAGGSLRLSCAASGLIFTGNVMGWYRQEPGKERELVAAISRSGGRTYYADSVKGRFTISRDNAKNTVYLQMNSLKREDTAVYYCNKVSPERVYYGSYFRYYYWGQGTQVTVSS”: the “polyreactivity (PSR sort gate)” value is listed as “high polyreactivity”.

As to “QDQLVESGGGLVQAGGSLRLSCAASGLIFVRYAMGWYRQAPGKERELVATITWSGGTTYADSVKGRFTISRDNAKKTVYLQMNSLNPEDTAVYYCAVASGPELDYWGQGTQVTVSS”, the “polyreactivity (PSR sort gate)” value was “low polyreactivity”.

Regarding “QDQLVESGGGLVQAGGSLRLSCAASGLTFAPYAMGWYREAPGKERELVAAISNGGSTYYADSVKGRFTISRDNAKNTVYLQMISLKPEDTAVYYCADRAFYFWRGYDYWGQGTQVTVSS”, the “polyreactivity (PSR sort gate)” value is given as “high polyreactivity”.

Regarding “QDQLVESGGGLVQAGGSLRLSCAASGLTFYVNAMGWYRQAPGTERELDAAITWSGGSTHYADSVKGRFTISRDNAKNTVYLQMNSLKPEDTAVYYCGRATFQNSYVAYDYCGQGTQVTVSS”, the “polyreactivity (PSR sort gate)” value is recorded as “low polyreactivity”.

On to “QDQLVESGGGLVQAGGSLRLSCAASGRIFAGYTMGWSRQAPGKERELVAAISWSGGRTYYADSVKGRFTISRDNAKNTVYLQMNSLKPEDTAVYYCNIVGWYHNYYYWGQGTQVTVSS”, for which the “polyreactivity (PSR sort gate)” value was “high polyreactivity”.

As for “QDQLVESGGGLVQAGGSLRLSCAASGRIFDRYAMGWYRQAPGKERELVAAISGRTGSTYYADSVKGRFTISRDNAKNTVYLQMNSLKPEDTAVYYCAKRSYWDGVRYDYWGQGTQVTVSS”, the “polyreactivity (PSR sort gate)” value is “high polyreactivity”.

In the case of “QDQLVESGGGLVQAGGSLRLSCAASGRIFEGNAMGWYRQAPGKEREFLAAISDGGSTNYADSVKGRFTISRDNAKNTVYLQLNSLKPEETAVYYCNVGANVYMLYFPSRGGVYDYGYWGQGTQVNVSS”, the “polyreactivity (PSR sort gate)” value is “low polyreactivity”.

Take “QDQLVESGGGLVQAGGSLRLSCAASGRIFGWYAMGWYRQAPGKEREFVAAISRGGSTNYADSVKGRFTISRDNAKNTVYLQMNSLKAEDTAVYYCNARKRGSRLRREFDYWGQGTQVTVST”: the “polyreactivity (PSR sort gate)” value is listed as “high polyreactivity”.

For the sequence “QDQLVESGGGLVQAGGSLRLSCAASGRIFHFNAMGWYRQAPGKERELVAAITSSGGSTDYADSVKGRFTISRDTAKNTVYLQMNRLKPEDTADYYCAKRVDAYGWWGRRSGVLSDYWGQGTQVTVSS”, the “polyreactivity (PSR sort gate)” value is “low polyreactivity”.

“QDQLVESGGGLVQAGGSLRLSCAASGRIFKVYAMGRYRQAPGKERELVAAITRNTGSTYYADSVKGRFTISRDNAKNTVYLQMNSLKPEDTSVFYCAVDVRSGRAYDYWGQGTQVTVSS”: the “polyreactivity (PSR sort gate)” value is on record as “high polyreactivity”.

As for “QDQLVESGGGLVQAGGSLRLSCAASGRIFPYNAMGWYRQAPGKERELVAGISRTGGSTYYADSVKGRFTISRDNAKNTVYLQMNSLKPEDTAVYYCAARPGAHPDRLDYWGQGTQVTVSS”, the “polyreactivity (PSR sort gate)” value is recorded as “low polyreactivity”.

On to “QDQLVESGGGLVQAGGSLRLSCAASGRIFVYNDMGWYIQAPGKERELVAAISSVGTTYYADSVKGRFTISRDNAKNTVYLQMNSLIPEDTAVYYCAVTRYQSPPRYYYWGQGTQVTVSS”, for which the “polyreactivity (PSR sort gate)” value is “low polyreactivity”.
